This is an account of results in patent publication CN106432498A (UNIV ANHUI, dated 2017).

The Kd is the constant that tells how readily two partners part at equilibrium. As a reminder, the koff is a measure of how fast the partners let go of each other. A word on the kon: it is a measure of how fast the partners come together.

Assay [1] concerns the target T1, 重组人uPAR蛋白 (recombinant human uPAR protein, uPAR-ECD) (human, UniProt Q03405 23-303, limits assumed).
T1 construct: extracellular domain; Bought reagent
The experiment in a line: BLI (Fortebio), antibody captured on anti-human IgG Fc sensor, uPAR-ECD at 0.25-1 μM.

Assay [2] deals with 人尿激酶型纤溶酶原激活物受体 (human uPAR) on SW480 cells (human) (UniProt Q03405). The experiment in a line: flow cytometry on SW480 cells, antibody at 5 μg/ml, FITC goat anti-human IgG. For orientation: A flow cytometer gives signals particle by particle.

T1 sequence (Q03405 23-303 limits assumed): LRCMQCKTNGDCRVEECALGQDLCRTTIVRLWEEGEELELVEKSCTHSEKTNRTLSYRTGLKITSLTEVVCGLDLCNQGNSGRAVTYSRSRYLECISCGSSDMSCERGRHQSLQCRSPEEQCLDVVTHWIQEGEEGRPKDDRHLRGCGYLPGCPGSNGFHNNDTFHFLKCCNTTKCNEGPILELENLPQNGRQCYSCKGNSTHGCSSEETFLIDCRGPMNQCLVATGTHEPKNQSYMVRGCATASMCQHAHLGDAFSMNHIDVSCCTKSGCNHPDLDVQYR

B1: H2BL2抗体 (humanized anti-uPAR antibody H2BL2) (antibody, human IgG1, kappa, V domains shown)
VH: EVQLVQSGAEVKKPGSSVKVSCKASGYTFTDYYIHWVRQAPGQGLEWIGWIFHGSDNTEYNEKFKSKATITADESTSTAYMELSSLRSEDTAVFYCARWGPHWYFDAWGRGTLVTVSS
VL: DIQMTQSPSTLSASVGDRVTITCRASSSVSYIHWYQQKPGRAPKPLMYEASSRATGVPSRFSGSGSGTEYTLTISSLQSDDFATYYCQQWNYPFTFGQGTKLEIKR
notes: also called H2BL2溶液
Turning to B1, in assay [1], the Kd stood at 6.32 nM, the koff was determined as 0.000454 s⁻¹ and the kon worked out at 71800 M⁻¹ s⁻¹. For the same molecule, in assay [2], the 平均荧光强度 was 4.44 and the 阳性率 was 99.6%.

B2: ATN615抗体 (monoclonal antibody targeting uPAR) (antibody, V domains shown)
VH: GVKLQQSGPEVVKPGASVKISCKASGYSFTNFYIHWVKQRPGQGLEWIGWIFHGSDNTEYNEKFKDKATLTADTSSSTAYMQLSSLTSEDSAVYFCARWGPHWYFDVWGQGTTVTVSS
VL: DIVLTQSPDITAASLGQKVTITCSASSSVSYMHWYQQKSGTSPKPWIFEISKLASGVPARFSGSGSGTSYSLTISSMEAEDAAIYYCQQWNYPFTFGGGTKLEIKR
notes: Made in the same way as H2BL2 (293F cells, protein A); also called ATN615溶液
Regarding B2, in assay [1], the Kd is 7.45 nM, the koff stood at 0.000576 s⁻¹ and the kon was 77300 M⁻¹ s⁻¹.
